Assay [1] concerns the target HKU2 spike glycoprotein ectodomain (residues 1-1066) (Rhinolophus bat coronavirus HKU2). The assay can be described thus: cryo-EM structure.
Assay [2] deals with SADS-CoV spike glycoprotein ectodomain (residues 1-1068) (swine acute diarrhea syndrome coronavirus (SADS-CoV)). The experiment in a line: cryo-EM structure.

“HKU2 spike glycoprotein ectodomain (residues 1-1066) (domain or fragment)” registered a stoichiometry N in assay [1] of 3.

As for “SADS-CoV spike glycoprotein ectodomain (residues 1-1068) (domain or fragment)”, in assay [2], the stoichiometry N worked out at 3.

The term stoichiometry N denotes the number of molecules, sites or subunits per partner or assembly.
